Laboratory results taken from the supplement of paper PMC9428881.
± gives the standard error.

Assay: background-corrected fluorescence of 3'-dye-labeled ssDNA relative to brightest sequence (3'-GCGCG) (fraction); higher = brighter dye fluorescence (less quenching)
Procedure, shortened: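 Each of 1024 permuted pentamers was synthesized as single-stranded DNA on glass slides by light-directed phosphoramidite chemistry, with a 3' Cy3 or Cy5 dye alongside. Arrays were scanned at 532 or 635 nm before and after overnight deprotection with ethylenediamine/ethanol. Values average 10 features per array across at least 3 syntheses. The fluorescence readout, with unlabeled-oligo background removed, is given relative to the brightest sequence.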

Sequence | background-corrected fluorescence (dye: Cy3 (3' terminal)) | background-corrected fluorescence (dye: Cy5 (3' terminal))
TTTTTTCATCAGCATGCGCATTTTTTTTTTTTTTTGGTAT [TATGG] | 0.525 ± 0.017 | 0.411 ± 0.025
TTTTTTCATCAGCATGCTCATTTTTTTTTTTTTTTGGTAG [GATGG] | 0.541 ± 0.021 | 0.431 ± 0.046
TTTTTTCATCAGCATGCTGATTTTTTTTTTTTTTTGGTAC [CATGG] | 0.442 ± 0.016 | 0.349 ± 0.036
TTTTTTCATCAGCATGCTGCTTTTTTTTTTTTTTTGGTAA [AATGG] | 0.573 ± 0.022 | 0.458 ± 0.031
TTTTTTCATCATCAGCAGCATTTTTTTTTTTTTTTGGGTT | 0.598 ± 0.011 | 0.489 ± 0.031
TTTTTTCATCATCAGCATCATTTTTTTTTTTTTTTGGGTG [GTGGG] | 0.627 ± 0.025 | 0.428 ± 0.024
TTTTTTCATCATCAGCATGATTTTTTTTTTTTTTTGGGTC [CTGGG] | 0.511 ± 0.03 | 0.377 ± 0.024
TTTTTTCATCATCAGCATGCTTTTTTTTTTTTTTTGGGTA [ATGGG] | 0.614 ± 0.0069 | 0.517 ± 0.03
TTTTTTCATCATCATCAGCATTTTTTTTTTTTTTTGGGGT | 0.741 ± 0.023 | 0.626 ± 0.053
TTTTTTCATCATCATCATCATTTTTTTTTTTTTTTGGGGG | 0.709 ± 0.059 | 0.635 ± 0.03
TTTTTTCATCATCATCATGATTTTTTTTTTTTTTTGGGGC [CGGGG] | 0.631 ± 0.03 | 0.532 ± 0.033
TTTTTTCATCATCATCATGCTTTTTTTTTTTTTTTGGGGA [AGGGG] | 0.753 ± 0.014 | 0.757 ± 0.038
TTTTTTCATCATCATGAGCATTTTTTTTTTTTTTTGGGCT [TCGGG] | 0.527 ± 0.017 | 0.442 ± 0.024
TTTTTTCATCATCATGATCATTTTTTTTTTTTTTTGGGCG [GCGGG] | 0.69 ± 0.031 | 0.521 ± 0.062
TTTTTTCATCATCATGATGATTTTTTTTTTTTTTTGGGCC [CCGGG] | 0.517 ± 0.031 | 0.367 ± 0.032
TTTTTTCATCATCATGATGCTTTTTTTTTTTTTTTGGGCA [ACGGG] | 0.565 ± 0.022 | 0.505 ± 0.024
TTTTTTCATCATCATGCGCATTTTTTTTTTTTTTTGGGAT [TAGGG] | 0.617 ± 0.027 | 0.506 ± 0.024
TTTTTTCATCATCATGCTCATTTTTTTTTTTTTTTGGGAG [GAGGG] | 0.614 ± 0.037 | 0.478 ± 0.026
TTTTTTCATCATCATGCTGATTTTTTTTTTTTTTTGGGAC [CAGGG] | 0.536 ± 0.029 | 0.401 ± 0.025
TTTTTTCATCATCATGCTGCTTTTTTTTTTTTTTTGGGAA [AAGGG] | 0.649 ± 0.032 | 0.596 ± 0.068
TTTTTTCATCATGAGCAGCATTTTTTTTTTTTTTTGGCTT [TTCGG] | 0.558 ± 0.029 | 0.405 ± 0.023
TTTTTTCATCATGAGCATCATTTTTTTTTTTTTTTGGCTG [GTCGG] | 0.469 ± 0.016 | 0.364 ± 0.018
TTTTTTCATCATGAGCATGATTTTTTTTTTTTTTTGGCTC [CTCGG] | 0.425 ± 0.028 | 0.337 ± 0.05
TTTTTTCATCATGAGCATGCTTTTTTTTTTTTTTTGGCTA [ATCGG] | 0.483 ± 0.016 | 0.42 ± 0.028
TTTTTTCATCATGATCAGCATTTTTTTTTTTTTTTGGCGT [TGCGG] | 0.643 ± 0.035 | 0.558 ± 0.057
TTTTTTCATCATGATCATCATTTTTTTTTTTTTTTGGCGG | 0.649 ± 0.014 | 0.604 ± 0.054

Sequence | background-corrected fluorescence (dye: Cy3 (3' terminal)) | background-corrected fluorescence (dye: Cy5 (3' terminal))
TTTTTTCATCATGATCATGATTTTTTTTTTTTTTTGGCGC [CGCGG] | 0.627 ± 0.028 | 0.551 ± 0.064
TTTTTTCATCATGATCATGCTTTTTTTTTTTTTTTGGCGA [AGCGG] | 0.714 ± 0.035 | 0.618 ± 0.07
TTTTTTCATCATGATGAGCATTTTTTTTTTTTTTTGGCCT [TCCGG] | 0.4958 ± 0.0048 | 0.386 ± 0.035
TTTTTTCATCATGATGATCATTTTTTTTTTTTTTTGGCCG [GCCGG] | 0.597 ± 0.02 | 0.449 ± 0.043
TTTTTTCATCATGATGATGATTTTTTTTTTTTTTTGGCCC [CCCGG] | 0.387 ± 0.028 | 0.312 ± 0.028
TTTTTTCATCATGATGATGCTTTTTTTTTTTTTTTGGCCA [ACCGG] | 0.518 ± 0.025 | 0.425 ± 0.025
TTTTTTCATCATGATGCGCATTTTTTTTTTTTTTTGGCAT [TACGG] | 0.603 ± 0.011 | 0.406 ± 0.025
TTTTTTCATCATGATGCTCATTTTTTTTTTTTTTTGGCAG [GACGG] | 0.527 ± 0.028 | 0.426 ± 0.017
TTTTTTCATCATGATGCTGATTTTTTTTTTTTTTTGGCAC [CACGG] | 0.436 ± 0.03 | 0.336 ± 0.03
TTTTTTCATCATGATGCTGCTTTTTTTTTTTTTTTGGCAA [AACGG] | 0.5847 ± 0.005 | 0.504 ± 0.041
TTTTTTCATCATGCGCAGCATTTTTTTTTTTTTTTGGATT [TTAGG] | 0.584 ± 0.031 | 0.41 ± 0.061
TTTTTTCATCATGCGCATCATTTTTTTTTTTTTTTGGATG [GTAGG] | 0.533 ± 0.031 | 0.388 ± 0.026
TTTTTTCATCATGCGCATGATTTTTTTTTTTTTTTGGATC [CTAGG] | 0.445 ± 0.019 | 0.35 ± 0.055
TTTTTTCATCATGCGCATGCTTTTTTTTTTTTTTTGGATA [ATAGG] | 0.582 ± 0.026 | 0.479 ± 0.045
TTTTTTCATCATGCTCAGCATTTTTTTTTTTTTTTGGAGT [TGAGG] | 0.653 ± 0.017 | 0.537 ± 0.048
TTTTTTCATCATGCTCATCATTTTTTTTTTTTTTTGGAGG | 0.689 ± 0.0083 | 0.534 ± 0.029
TTTTTTCATCATGCTCATGATTTTTTTTTTTTTTTGGAGC [CGAGG] | 0.549 ± 0.026 | 0.439 ± 0.029
TTTTTTCATCATGCTCATGCTTTTTTTTTTTTTTTGGAGA [AGAGG] | 0.726 ± 0.026 | 0.594 ± 0.04
TTTTTTCATCATGCTGAGCATTTTTTTTTTTTTTTGGACT [TCAGG] | 0.508 ± 0.033 | 0.412 ± 0.04
TTTTTTCATCATGCTGATCATTTTTTTTTTTTTTTGGACG [GCAGG] | 0.567 ± 0.016 | 0.455 ± 0.019
TTTTTTCATCATGCTGATGATTTTTTTTTTTTTTTGGACC [CCAGG] | 0.446 ± 0.022 | 0.317 ± 0.023
TTTTTTCATCATGCTGATGCTTTTTTTTTTTTTTTGGACA [ACAGG] | 0.602 ± 0.022 | 0.435 ± 0.053
TTTTTTCATCATGCTGCGCATTTTTTTTTTTTTTTGGAAT [TAAGG] | 0.594 ± 0.033 | 0.453 ± 0.043
TTTTTTCATCATGCTGCTCATTTTTTTTTTTTTTTGGAAG [GAAGG] | 0.593 ± 0.033 | 0.445 ± 0.03
TTTTTTCATCATGCTGCTGATTTTTTTTTTTTTTTGGAAC [CAAGG] | 0.463 ± 0.028 | 0.352 ± 0.019
